The record followed here is PMC3589825, “The AFF4 scaffold binds human P-TEFb adjacent to HIV Tat” (eLife, 2013).

What all share (conditions): both partners purified
The target of test [1] is T1, Tat-P-TEFb complex (HIV-1 Tat 1–86, CDK9 1–330, cyclin T1 1–264) (human | HIV-1, UniProt P50750;O60563;P04608).
T1 construct: also called P-TEFb-Tat; not shown: His-tag, N-terminal, cleaved; copies: + +
The test can be described thus: fluorescence polarisation; competition titration of unlabeled AFF4 segments against 5 nM fluorescent peptide with 75 nM CycT1, 45 nM P-TEFb or 6 nM Tat-P-TEFb; 25 mM HEPES pH 7.5, 100 mM NaCl, 10% glycerol, 0.1% NP40, 0.5 mM TCEP. In general terms: In fluorescence polarisation assays a small probe gives low polarisation when free and higher when bound to something large.

For test [2], the target named is T2, P-TEFb (CDK9 1–330 / cyclin T1 1–264) (human, UniProt P50750 1-330; O60563 1-264).
T2 construct: also called positive transcription elongation factor b; source: High5 insect cells (baculovirus), purified (His-Trap, TEV digest, His-Trap); not shown: His-tag, N-terminal, cleaved
The description is as above.

The target in test [3] is T3, cyclin T1 (CycT1), purified alone, wild type (human, UniProt O60563 1-264).
T3 construct: source: purified
The test is described as above.

In test [4] the target is T1, Tat-P-TEFb complex (HIV-1 Tat 1–86, …). The test can be described thus: fluorescence polarisation.
Test [5] addresses T3, cyclin T1 (CycT1), purified alone, wild …. Put plainly: fluorescence polarisation.
Test [6] has as its target T2, P-TEFb (CDK9 1–330 / cyclin T1 1–264). Put plainly: fluorescence polarisation.

GABA = NCCCC(=O)O

T2 sequence (P50750 1-330, chain 1 of 2): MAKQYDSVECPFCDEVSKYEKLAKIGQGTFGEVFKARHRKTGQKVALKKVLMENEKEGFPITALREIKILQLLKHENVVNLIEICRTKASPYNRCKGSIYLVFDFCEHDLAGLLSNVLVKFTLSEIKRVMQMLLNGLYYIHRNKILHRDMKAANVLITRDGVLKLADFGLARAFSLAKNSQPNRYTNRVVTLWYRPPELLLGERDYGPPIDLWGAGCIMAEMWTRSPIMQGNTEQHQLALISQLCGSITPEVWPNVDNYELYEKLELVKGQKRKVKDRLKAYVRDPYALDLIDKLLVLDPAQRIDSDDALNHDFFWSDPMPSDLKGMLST
T2 sequence (O60563 1-264, chain 2 of 2): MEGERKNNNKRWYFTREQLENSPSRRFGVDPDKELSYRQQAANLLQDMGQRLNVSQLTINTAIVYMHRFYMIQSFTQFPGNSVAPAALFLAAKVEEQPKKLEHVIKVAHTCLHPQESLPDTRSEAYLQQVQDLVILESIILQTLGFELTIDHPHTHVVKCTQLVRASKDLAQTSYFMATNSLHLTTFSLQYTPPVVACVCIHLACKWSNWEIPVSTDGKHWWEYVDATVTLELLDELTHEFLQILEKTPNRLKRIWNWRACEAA
T3 sequence (O60563 1-264): as the sequence (O60563 1-264, chain 2 of 2) above

B1: AFF4(2–363) (domain or fragment, human, UniProt Q9UHB7 2-363, looked up)
chain: NREDRNVLRMKERERRNQEIQQGEDAFPPSSPLFAEPYKVTSKEDKLSSRIQSMLGNYDEMKDFIGDRSIPKLVAIPKPTVPPSADEKSNPNFFEQRHGGSHQSSKWTPVGPAPSTSQSQKRSSGLQSGHSSQRTSAGSSSGTNSSGQRHDRESYNNSGSSSRKKGQHGSEHSKSRSSSPGKPQAVSSLNSSHSRSHGNDHHSKEHQRSKSPRDPDANWDSPSRVPFSSGQHSTQSFPPSLMSKSNSMLQKPTAYVRPMDGQESMEPKLSSEHYSSQSHGNSMTELKPSSKAHLTKLKIPSQPLDASASGDVSCVDEILKEMTHSWPPPLTAIHTPCKTEPSKFPFPTKESQQSNFGTGEQK
Turning to B1, the Kd (usually the free concentration of one partner at which half of the binding sites on the other are occupied at equilibrium, for simple one-to-one binding) in test [1] worked out at 0.6 ± 0.1 nM; in test [2], 7 ± 1 nM.

B2: unlabeled AFF4(32–67) peptide (peptide)
peptide: SPLFAEPYKVTSKEDKLSSRIQSMLGNYDEMKDFIG
With B2, the values for the Kd in test [1], in test [3] and in test [2] were 4.5 ± 0.6 nM, 102 ± 10 nM and 36 ± 4 nM, respectively.

B3: fluorescein-labeled AFF4(32–67) peptide (peptide)
peptide: {FAM-GABA}-SPLFAEPYKVTSKEDKLSSRIQSMLGNYDEMKDFIG-NH2
notes: source: synthetic peptide (University of Utah DNA/Peptide Facility)
Take B3: the dissociation constant (Kd) in test [4] was found to be 8.8 ± 0.8 nM; in test [5], 104 ± 17 nM; in test [6] it was 36 ± 6 nM.

B4: AFF4(2–73) (domain or fragment, human, UniProt Q9UHB7 2-73, looked up)
chain: NREDRNVLRMKERERRNQEIQQGEDAFPPSSPLFAEPYKVTSKEDKLSSRIQSMLGNYDEMKDFIGDRSIPK
notes: source: E. coli Rosetta(DE3)pLysS, purified (His-Trap, TEV digest, His-Trap); not shown: His-tag, N-terminal, cleaved
As to B4, the equilibrium dissociation constant (Kd) was 0.85 ± 0.15 nM in test [1], 130 ± 18 nM in test [3] and 10 ± 1 nM in test [2].
